Results taken from patent publication US20250163186A1 (PHYLAXIS BIOSCIENCE, published 2025).

These binders were tested against T1, human IgE (human, UniProt P01854 1-428) (assay: ELISA, clone lysate on IgE-coated plate).
T1 construct: written under the same molecule; also called IgE (Abcam ab65866); soluble IgE
Description: Each amino acid in CDR1 (SEQ ID NO:3), CDR2 (SEQ ID NO:68), and CDR3 (SEQ ID NO:74) was randomly replaced such that the 20 natural amino acids would likely all have been sampled at every position. The expression vector for the VHH containing the mutagenized CDRs was then transfected into E. coli, and at least 96 clones were randomly chosen for each position mutated in each CDR. This gives likely coverage of all potential mutations at each position since the probability to get any given amino acid at that position is 5%. […] The heat maps represent the relative binding for each clone determined by the range of OD values from the ELISA background to WT CDR binding (FIGS. 16A-16C). Site numbering for each residue tested is indicated by the inset tables in FIGS. 16A-16C.

T1 sequence (P01854 other isoform, or with tags, fused parts or gaps limits assumed, form in doubt): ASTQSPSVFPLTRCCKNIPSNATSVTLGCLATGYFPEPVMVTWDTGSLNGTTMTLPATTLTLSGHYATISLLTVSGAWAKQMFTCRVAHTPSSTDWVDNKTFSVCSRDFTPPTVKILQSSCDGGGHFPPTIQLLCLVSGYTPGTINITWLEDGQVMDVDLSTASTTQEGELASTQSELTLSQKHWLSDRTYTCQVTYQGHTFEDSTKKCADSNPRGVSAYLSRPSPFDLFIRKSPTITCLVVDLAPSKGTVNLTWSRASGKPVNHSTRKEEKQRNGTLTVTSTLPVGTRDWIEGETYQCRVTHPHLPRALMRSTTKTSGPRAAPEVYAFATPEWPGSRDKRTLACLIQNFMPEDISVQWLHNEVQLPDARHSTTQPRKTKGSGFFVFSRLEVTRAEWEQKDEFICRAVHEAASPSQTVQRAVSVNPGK

| Binder | Confirm OD450 Duplicate1 | Confirm OD450 Duplicate2 | R1 Screening OD450 |
| --- | --- | --- | --- |
| 2-1F11 (VHH, also called hzB10v40 VHH, CDR1 site 2 L to I) VHH: EVQLLESGGGEVQPGGSLRLSCVASGITFSSYNMGWLRQAPGKEREFVGLSGSSSTSTYYAESVKGRFTISRDNAKNTVYLQMTSLRAEDTAVYYCAARRLLSTYWSDRSWDFWGQGTLVTVEP | 0.647 | 0.601 | 0.754 |
| 2-2C3 (VHH, also called hzB10v40 VHH, CDR1 site 2 L to V) VHH: EVQLLESGGGEVQPGGSLRLSCVASGVTFSSYNMGWLRQAPGKEREFVGLSGSSSTSTYYAESVKGRFTISRDNAKNTVYLQMTSLRAEDTAVYYCAARRLLSTYWSDRSWDFWGQGTLVTVEP | 0.621 | 0.62 | 0.914 |
| 3-1A1 (VHH, also called hzB10v40 VHH, CDR1 site 3 T to V) VHH: EVQLLESGGGEVQPGGSLRLSCVASGLVFSSYNMGWLRQAPGKEREFVGLSGSSSTSTYYAESVKGRFTISRDNAKNTVYLQMTSLRAEDTAVYYCAARRLLSTYWSDRSWDFWGQGTLVTVEP | 0.607 | 0.572 | 0.896 |
| 3-1B9 (VHH, also called hzB10v40 VHH, CDR1 site 3 T to N) VHH: EVQLLESGGGEVQPGGSLRLSCVASGLNFSSYNMGWLRQAPGKEREFVGLSGSSSTSTYYAESVKGRFTISRDNAKNTVYLQMTSLRAEDTAVYYCAARRLLSTYWSDRSWDFWGQGTLVTVEP | 0.585 | 0.634 | 0.945 |
| 3-1B10 (VHH, also called hzB10v40 VHH, CDR1 site 3 T to K) VHH: EVQLLESGGGEVQPGGSLRLSCVASGLKFSSYNMGWLRQAPGKEREFVGLSGSSSTSTYYAESVKGRFTISRDNAKNTVYLQMTSLRAEDTAVYYCAARRLLSTYWSDRSWDFWGQGTLVTVEP | 0.57 | 0.594 | 0.904 |
| 3-1H1 (VHH, also called hzB10v40 VHH, CDR1 site 3 T to I) VHH: EVQLLESGGGEVQPGGSLRLSCVASGLIFSSYNMGWLRQAPGKEREFVGLSGSSSTSTYYAESVKGRFTISRDNAKNTVYLQMTSLRAEDTAVYYCAARRLLSTYWSDRSWDFWGQGTLVTVEP | 0.567 | 0.559 | 0.857 |
| 4-1F10 (VHH, also called hzB10v40 VHH, CDR1 site 4 F to Y) VHH: EVQLLESGGGEVQPGGSLRLSCVASGLTYSSYNMGWLRQAPGKEREFVGLSGSSSTSTYYAESVKGRFTISRDNAKNTVYLQMTSLRAEDTAVYYCAARRLLSTYWSDRSWDFWGQGTLVTVEP | 0.697 | 0.545 | 0.709 |
| 4-1F11 (VHH, also called hzB10v40 VHH, CDR1 site 4 F to P) VHH: EVQLLESGGGEVQPGGSLRLSCVASGLTPSSYNMGWLRQAPGKEREFVGLSGSSSTSTYYAESVKGRFTISRDNAKNTVYLQMTSLRAEDTAVYYCAARRLLSTYWSDRSWDFWGQGTLVTVEP | 0.582 | 0.483 | 0.798 |
| 4-2E2 (VHH, also called hzB10v40 VHH, CDR1 site 4 F to G) VHH: EVQLLESGGGEVQPGGSLRLSCVASGLTGSSYNMGWLRQAPGKEREFVGLSGSSSTSTYYAESVKGRFTISRDNAKNTVYLQMTSLRAEDTAVYYCAARRLLSTYWSDRSWDFWGQGTLVTVEP | 0.579 | 0.586 | 1.05 |
| 5A1 (VHH, also called hzB10v40 VHH, CDR1 site 5 S to K) VHH: EVQLLESGGGEVQPGGSLRLSCVASGLTFKSYNMGWLRQAPGKEREFVGLSGSSSTSTYYAESVKGRFTISRDNAKNTVYLQMTSLRAEDTAVYYCAARRLLSTYWSDRSWDFWGQGTLVTVEP | 0.609 | 0.573 | 0.914 |
| 5A10 (VHH, also called hzB10v40 VHH, CDR1 site 5 S to A) VHH: EVQLLESGGGEVQPGGSLRLSCVASGLTFASYNMGWLRQAPGKEREFVGLSGSSSTSTYYAESVKGRFTISRDNAKNTVYLQMTSLRAEDTAVYYCAARRLLSTYWSDRSWDFWGQGTLVTVEP | 0.554 | 0.549 | 0.96 |
| 5C3 (VHH, also called hzB10v40 VHH, CDR1 site 5 S to D) VHH: EVQLLESGGGEVQPGGSLRLSCVASGLTFDSYNMGWLRQAPGKEREFVGLSGSSSTSTYYAESVKGRFTISRDNAKNTVYLQMTSLRAEDTAVYYCAARRLLSTYWSDRSWDFWGQGTLVTVEP | 0.546 | 0.556 | 0.897 |
| 5H11 (VHH, also called hzB10v40 VHH, CDR1 site 5 S to R) VHH: EVQLLESGGGEVQPGGSLRLSCVASGLTFRSYNMGWLRQAPGKEREFVGLSGSSSTSTYYAESVKGRFTISRDNAKNTVYLQMTSLRAEDTAVYYCAARRLLSTYWSDRSWDFWGQGTLVTVEP | 0.545 | 0.55 | 0.893 |
| 6A9 (VHH, also called hzB10v40 VHH, CDR1 site 6 S to E) VHH: EVQLLESGGGEVQPGGSLRLSCVASGLTFSEYNMGWLRQAPGKEREFVGLSGSSSTSTYYAESVKGRFTISRDNAKNTVYLQMTSLRAEDTAVYYCAARRLLSTYWSDRSWDFWGQGTLVTVEP | 0.475 | 0.488 | 0.852 |
| 6C2 (VHH, also called hzB10v40 VHH, CDR1 site 6 S to Q) VHH: EVQLLESGGGEVQPGGSLRLSCVASGLTFSQYNMGWLRQAPGKEREFVGLSGSSSTSTYYAESVKGRFTISRDNAKNTVYLQMTSLRAEDTAVYYCAARRLLSTYWSDRSWDFWGQGTLVTVEP | 0.534 | 0.526 | 0.826 |
| 6E11 (VHH, also called hzB10v40 VHH, CDR1 site 6 S to T) VHH: EVQLLESGGGEVQPGGSLRLSCVASGLTFSTYNMGWLRQAPGKEREFVGLSGSSSTSTYYAESVKGRFTISRDNAKNTVYLQMTSLRAEDTAVYYCAARRLLSTYWSDRSWDFWGQGTLVTVEP | 0.454 | 0.468 | 0.817 |
| 6F11 (VHH, also called hzB10v40 VHH, CDR1 site 6 S to R) VHH: EVQLLESGGGEVQPGGSLRLSCVASGLTFSRYNMGWLRQAPGKEREFVGLSGSSSTSTYYAESVKGRFTISRDNAKNTVYLQMTSLRAEDTAVYYCAARRLLSTYWSDRSWDFWGQGTLVTVEP | 0.417 | 0.402 | 0.885 |
| 6G9 (VHH, also called hzB10v40 VHH, CDR1 site 6 S to A) VHH: EVQLLESGGGEVQPGGSLRLSCVASGLTFSAYNMGWLRQAPGKEREFVGLSGSSSTSTYYAESVKGRFTISRDNAKNTVYLQMTSLRAEDTAVYYCAARRLLSTYWSDRSWDFWGQGTLVTVEP | 0.556 | 0.512 | 0.875 |
| 6H1 (VHH, also called hzB10v40 VHH, CDR1 site 6 S to P) VHH: EVQLLESGGGEVQPGGSLRLSCVASGLTFSPYNMGWLRQAPGKEREFVGLSGSSSTSTYYAESVKGRFTISRDNAKNTVYLQMTSLRAEDTAVYYCAARRLLSTYWSDRSWDFWGQGTLVTVEP | 0.487 | 0.53 | 0.908 |
| 8F11 (VHH, also called hzB10v40 VHH, CDR1 site 8 N to T) VHH: EVQLLESGGGEVQPGGSLRLSCVASGLTFSSYTMGWLRQAPGKEREFVGLSGSSSTSTYYAESVKGRFTISRDNAKNTVYLQMTSLRAEDTAVYYCAARRLLSTYWSDRSWDFWGQGTLVTVEP | 0.52 | 0.559 | 0.922 |
| 8G10 (VHH, also called hzB10v40 VHH, CDR1 site 8 N to S) VHH: EVQLLESGGGEVQPGGSLRLSCVASGLTFSSYSMGWLRQAPGKEREFVGLSGSSSTSTYYAESVKGRFTISRDNAKNTVYLQMTSLRAEDTAVYYCAARRLLSTYWSDRSWDFWGQGTLVTVEP | 0.534 | 0.552 | 0.917 |
| 8H11 (VHH, also called hzB10v40 VHH, CDR1 site 8 N to R) VHH: EVQLLESGGGEVQPGGSLRLSCVASGLTFSSYRMGWLRQAPGKEREFVGLSGSSSTSTYYAESVKGRFTISRDNAKNTVYLQMTSLRAEDTAVYYCAARRLLSTYWSDRSWDFWGQGTLVTVEP | 0.571 | 0.568 | 0.97 |
| 9B1 (VHH, also called hzB10v40 VHH, CDR1 site 9 M to V) VHH: EVQLLESGGGEVQPGGSLRLSCVASGLTFSSYNVGWLRQAPGKEREFVGLSGSSSTSTYYAESVKGRFTISRDNAKNTVYLQMTSLRAEDTAVYYCAARRLLSTYWSDRSWDFWGQGTLVTVEP | 0.452 | 0.454 | 0.879 |
| 9D1 (VHH, also called hzB10v40 VHH, CDR1 site 9 M to I) VHH: EVQLLESGGGEVQPGGSLRLSCVASGLTFSSYNIGWLRQAPGKEREFVGLSGSSSTSTYYAESVKGRFTISRDNAKNTVYLQMTSLRAEDTAVYYCAARRLLSTYWSDRSWDFWGQGTLVTVEP | 0.435 | 0.442 | 0.905 |
| 9E8 (VHH, also called hzB10v40 VHH, CDR1 site 9 M to L) VHH: EVQLLESGGGEVQPGGSLRLSCVASGLTFSSYNLGWLRQAPGKEREFVGLSGSSSTSTYYAESVKGRFTISRDNAKNTVYLQMTSLRAEDTAVYYCAARRLLSTYWSDRSWDFWGQGTLVTVEP | 0.522 | 0.539 | 0.897 |
| 9F1 (VHH, also called hzB10v40 VHH, CDR1 site 9 M to S) VHH: EVQLLESGGGEVQPGGSLRLSCVASGLTFSSYNSGWLRQAPGKEREFVGLSGSSSTSTYYAESVKGRFTISRDNAKNTVYLQMTSLRAEDTAVYYCAARRLLSTYWSDRSWDFWGQGTLVTVEP | 0.498 | 0.467 | 0.921 |
